Assay results from paper PMC9249326, “Analgesic effects of nerve growth factor‐directed monoclonal antibody on diabetic neuralgia in an animal model” (FEBS Open Bio, 2022).

Legend:
[1] = target: T1, 6xHis-tagged human NGF (nerve growth factor) (Homo sapiens, UniProt P01138); assay: ELISA; NGF-6xHis (2 ug/mL) coated at 4 °C overnight; antibodies in threefold series from 100 nM, 1 h; detected with HRP goat anti-human IgG (H + L), TMB, OD450; conditions: both partners purified
T1 construct: nerve growth factor (NGF), human; also called NGF-6xHis; human NGF-6xHis; source: HEK293, transient transfection (pCAT1.0 vector)
T1 sequence (P01138 19-241): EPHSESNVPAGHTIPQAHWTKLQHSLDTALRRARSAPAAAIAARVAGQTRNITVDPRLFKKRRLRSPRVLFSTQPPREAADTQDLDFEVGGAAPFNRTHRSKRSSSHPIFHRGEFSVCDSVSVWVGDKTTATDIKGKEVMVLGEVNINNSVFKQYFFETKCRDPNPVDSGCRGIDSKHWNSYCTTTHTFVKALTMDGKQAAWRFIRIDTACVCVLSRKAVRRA

NGF-6xHis-biotin = target: T2, NGF-6xHis-biotin (human, UniProt P01138, biotin); assay: ELISA; blocking ELISA: TrkA-Fc (2 ug/mL) coated at 4 °C overnight; threefold dilutions of antibody 1 h at room temperature, then NGF-6xHis-biotin (0.5 ug/mL) 30 min; HRP-streptavidin, TMB; conditions: both partners purified
T2 construct: nerve growth factor (NGF), human; source: HEK293, transient transfection (pCAT1.0 vector)
T2 sequence (P01138 122-241): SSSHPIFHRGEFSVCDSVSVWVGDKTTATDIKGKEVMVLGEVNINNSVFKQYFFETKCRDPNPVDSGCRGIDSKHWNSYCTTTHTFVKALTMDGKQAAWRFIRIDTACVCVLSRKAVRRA

B1: tanezumab (antibody, V domains shown)
VH: QVQLQESGPGLVKPSETLSLTCTVSGFSLIGYDLNWIRQPPGKGLEWIGIIWGDGTTDYNSAVKSRVTISKDTSKNQFSLKLSSVTAADTAVYYCARGGYWYATSYYFDYWGQGTLVTVSS
VL: DIQMTQSPSSLSASVGDRVTITCRASQSISNNLNWYQQKPGKAPKLLIYYTSRFHSGVPSRFSGSGSGTDFTFTISSLQPEDIATYYCQQEHTLPYTFGQGTKLEIK
notes: Whole antibody, held on Protein A sensors
[1]
  EC50: 9.34 pM
NGF-6xHis-biotin
  IC50: 1670 pM
